# Assay results: US20110218114A1, “NUCLEOTIDE TRIPHOSPHATE WITH AN ELECTROACTIVE LABEL CONJUGATED TO THE GAMMA PHOSPHATE” (priority 2007, published 2011)
# What was measured:
# Format in all cases: biochemical
# Abl1-T315I = biological target: T1, Abl1-T315I (Homo sapiens, UniProt P00519, T315I); test: Electrochemical (CV) Fc-ATP phosphorylation assay, substrate peptide immobilized on gold microelectrode, Abl1-T315I; settings: for phosphorylation of immobilized peptide by Abl1-T315I (anodic current response): control peptides, HeLa cell lysate, FIG. 12C
# T1 construct: purchased Cell Signalling Technology (MA, USA)
# Protocol: (§1) The covalent immobilization of substrate peptides on the gold microelectrode surface using succinimide-esters of lipoic acid included the following steps: (a) incubation of the bare gold microelectrode with 5 mM NHS-lipoic acid ester in ethanol for 15 h; (b) incubation of the N-Hydroxysuccinimide (NHS)-lipoic acid-modified surface with the substrate peptides in the presence of 2 mM N-(3-Dimethylaminopropyl)-N′-ethylcarbodiimide (EDC) in 0.1 M 2-(N-Morpholino) ethanesulfonic acid (MES, pH 6) for 2 h, (c) incubation of the peptide-modified electrodes with Mercaptopolyethylene glycol 5′000 monomethyl ether (PEG-thiol 5′000) solution (1:100 v/v) in ethanol for 10 min.
# Abl1-T315I kinase assay buffer included 60 mM HEPES (pH 7.5), 5 mM MgCl2, 5 mM MnCl2, 3 μM Na3VO4, 400 μM ATP, peptide substrate (STP) and the kinase in a total reaction volume of 25 μL. Purified recombinant human Abl1-T315I mutant kinase and its substrate peptide Signal Transduction Protein (STP, EGIYDVP) were purchased from Cell Signalling Technology (MA, USA). The substrate peptide modified electrodes were incubated at 37° C. for 2 h. After following the same washing procedures as for CK2, the CV measurements were recorded using the same parameters as described above.
# (§2) The electrochemical data from the CV measurements are obtained as charge density (J) per test. […] Here, the detailed description of the calculation procedure will be given for CK2-catalysed phosphorylation reactions. The reaction volume is 25 μL, which leads to 2.5 nmole Fc-ATP per test. Then, the specific electro-activity (SE) of Fc-ATP (J/nmole Fc-ATP) would be calculated as follows: […]
# (§3) where V is the rate, V0 is the rate in the absence of the inhibitor, [I] is the inhibitor concentration and Ki′ is the apparent inhibition constant.
# (§4) where [S] is the surface density of the immobilized substrate peptide and Km is the Michaelis-Menten constant. The surface density conditions of the immobilized substrate peptide were changed between 1, 5, 10, 15 and 20 pmol/cm2. The initial time dependence of the kinase reactions were determined at these varying peptide density conditions. The phosphorylation reaction was stopped after 5, 15, 30, 60, 90, 120 and 150 min, and the measurement of the attached Fc molecules was carried out. […] If the y is set for 0 and the equation is solved for x, x intercept becomes equal to −1/Km.
# HER2/ErbB2 = biological target: T2, HER2/ErbB2 (Homo sapiens, UniProt P04626); test: Electrochemical (CV) Fc-ATP phosphorylation assay, substrate peptide immobilized on gold microelectrode, HER2/ErbB2; settings: for phosphorylation of immobilized peptide by HER2/ErbB2 (anodic current response): control peptides, FIG. 13C
# T2 construct: purchased Cell Signalling Technology (MA, USA)
# Protocol: as §1
# (§5) The electrochemical data from the CV measurements are obtained as charge density (J) per test. The concentration of Fc-ATP for the kinase activity determinations was 100 μM, for CK2 and 200 μM for Abl1-T315I and HER2-ErbB2. Here, the detailed description of the calculation procedure will be given for CK2-catalysed phosphorylation reactions. The reaction volume is 25 μL, which leads to 2.5 nmole Fc-ATP per test. Then, the specific electro-activity (SE) of Fc-ATP (J/nmole Fc-ATP) would be calculated as follows: […]
# (§6) The apparent inhibition constants Ki′ were determined by fitting equation (3) to the experimental data.
# (§7) where V is the rate, V0 is the rate in the absence of the inhibitor, [I] is the inhibitor concentration and Ki′ is the apparent inhibition constant. The true inhibition constants Ki were calculated by correction of Ki′ according to Equation (4): […]
# as §4
# CK2α′ = CK2α′ (Homo sapiens, UniProt P19784); test: Electrochemical (CV) Fc-ATP phosphorylation assay, substrate peptide immobilized on gold microelectrode, CK2α′
# CK2α′, sequence (P19784 whole entry): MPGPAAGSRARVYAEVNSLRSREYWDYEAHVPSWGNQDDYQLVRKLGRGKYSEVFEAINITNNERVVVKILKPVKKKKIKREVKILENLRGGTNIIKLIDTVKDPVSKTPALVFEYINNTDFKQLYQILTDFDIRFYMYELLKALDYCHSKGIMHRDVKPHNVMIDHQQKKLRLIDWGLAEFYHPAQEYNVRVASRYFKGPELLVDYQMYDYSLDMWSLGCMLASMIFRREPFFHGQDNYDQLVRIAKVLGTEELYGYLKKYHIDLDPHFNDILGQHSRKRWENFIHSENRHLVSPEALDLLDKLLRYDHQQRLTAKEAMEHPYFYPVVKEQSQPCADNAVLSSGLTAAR
# Protocol: as §1
# (§8) The substrate peptide modified electrodes were incubated at 37° C. for 2 h.
# as §5, §6, §7, §4
# CK2α = CK2α (Homo sapiens, UniProt P68400); test: Electrochemical (CV) Fc-ATP phosphorylation assay, substrate peptide immobilized on gold microelectrode, CK2α
# CK2α, sequence (P68400 whole entry): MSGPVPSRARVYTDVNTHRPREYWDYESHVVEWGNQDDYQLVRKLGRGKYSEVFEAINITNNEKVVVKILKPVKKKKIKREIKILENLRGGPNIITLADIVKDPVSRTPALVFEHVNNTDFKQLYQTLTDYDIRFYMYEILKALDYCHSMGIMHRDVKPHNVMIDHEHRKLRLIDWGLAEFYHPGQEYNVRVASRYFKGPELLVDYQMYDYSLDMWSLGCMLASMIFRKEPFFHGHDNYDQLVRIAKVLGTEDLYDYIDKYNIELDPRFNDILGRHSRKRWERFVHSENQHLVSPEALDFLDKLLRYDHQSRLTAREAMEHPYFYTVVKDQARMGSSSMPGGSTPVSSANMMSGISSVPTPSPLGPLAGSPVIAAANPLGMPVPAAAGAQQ
# Protocol: as §1, §8, §2, §3, §4
# [1] = HER2/ErbB2, immobilized substrate peptide, Lineweaver-Burk
# [2] = Abl1-T315I, immobilized substrate peptide, Lineweaver-Burk
# [3] = CK2α′, immobilized substrate peptide, Lineweaver-Burk
compound,measurement,setting,value
"Brc1c(Br)c(Br)c2[nH]nnc2c1Br [(1), 4,5,6,7-Tetrabromo-2-azabenzimidazole]",inhibition of EGIYDVP phosphorylation (specificity control),"Abl1-T315I; EGIYDVP peptide exposed to inhibitor, FIG. 11C-b",not inhibited
DNEYFYV [FLT3 substrate peptide for HER2/ErbB2],phosphorylation of immobilized peptide by Abl1-T315I (anodic current response),Abl1-T315I,Low current responses
same,Vmax/Kmax,"HER2/ErbB2; HER2/ErbB2, immobilized substrate peptide",7.41
same,Km,HER2/ErbB2; [1],208 µM
same,Vmax,HER2/ErbB2; [1],1.54 µmol/min/mg
EGIYDVP [Abl1-T315I substrate peptide Signal Transduction Protein],phosphorylation of immobilized peptide by CK2 (current response),"CK2α′; control peptide in presence of cell lysate, FIG. 10B-c",did not catalyze phosphorylation
same,Vmax/Kmax,"Abl1-T315I; Abl1-T315I, immobilized substrate peptide",9.18
same,Km,Abl1-T315I; [2],182 µM
same,Vmax,Abl1-T315I; [2],1.67 µmol/min/mg
same,phosphorylation of immobilized peptide by HER2/ErbB2 (anodic current response),HER2/ErbB2,slight increase in the current responses
RRRDDDSDDD [CK2 peptide substrate],Vmax/Kmax,CK2α,22.64
same,Km,CK2α; Lineweaver-Burk,87 µM
same,Vmax,CK2α; Lineweaver-Burk,1.97 µmol/min/mg
same,Vmax/Kmax,"CK2α′; CK2α′, immobilized substrate peptide",18.16
same,Km,CK2α′; [3],98 µM
same,Vmax,CK2α′; [3],1.78 µmol/min/mg
same,phosphorylation of immobilized peptide by Abl1-T315I (anodic current response),Abl1-T315I,did not catalyze phosphorylation
same,phosphorylation of immobilized peptide by Abl1-T315I (anodic current response),Abl1-T315I; listed as CK2 substrate peptide,No significant current responses
same,phosphorylation of immobilized peptide by HER2/ErbB2 (anodic current response),HER2/ErbB2,did not catalyze phosphorylation
